Assay results from PMC9140564 (International Journal of Molecular Sciences, 2022).

Experiments:
[1] = target: T1, recombinant pre-S region protein of the HBV large surface protein (LHBS) (Hepatitis B virus, strain ; …, UniProt P03141); test: ELISA; antigen protein or peptide coated on the plate (0.1 ng/uL, or 10-fold serial dilutions), 4 °C overnight; purified monoclonal antibody added (serial dilutions or 1:2000 in PBST); PBST pH 7.4 washes; anti-mouse IgG-HRP, chemiluminescence read-out; settings: both partners purified
T1 construct: also called pre-S region E. coli recombinant protein; source: E. coli BL21 (pET21b, IPTG 0.2 mM), purified
T1 sequence (P03141 whole entry, looked up): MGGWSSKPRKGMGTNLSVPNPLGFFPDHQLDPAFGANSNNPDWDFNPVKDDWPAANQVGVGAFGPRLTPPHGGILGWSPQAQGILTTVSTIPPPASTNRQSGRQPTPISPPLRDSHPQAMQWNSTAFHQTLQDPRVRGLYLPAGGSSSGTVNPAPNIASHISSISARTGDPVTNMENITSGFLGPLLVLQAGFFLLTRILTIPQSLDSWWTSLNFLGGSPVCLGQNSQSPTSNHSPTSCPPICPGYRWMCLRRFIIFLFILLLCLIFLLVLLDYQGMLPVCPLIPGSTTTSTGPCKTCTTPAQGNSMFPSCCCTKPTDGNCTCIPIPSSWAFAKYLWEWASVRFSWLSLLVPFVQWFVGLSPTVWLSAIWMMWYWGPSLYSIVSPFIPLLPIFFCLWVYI

[2] = target: T2, pre-S1 oligopeptide of amino acids 25-38 (Hepatitis B virus, strain  …); test: as above; settings: both partners purified
T2 construct: pre-S1 region of the hepatitis B virus large surface protein, amino acids 25-38; One of several oligopeptides spanning pre-S1 21-47; also called peptide containing amino acids 25–38; source: synthetic peptide
T2 chain: FPDHQLDPAFGANS

[3] = target: T3, large HBV surface protein (LHBS), full-length, expressed in 293T cells (Hepatitis B virus, strain ; …, UniProt P03141); test: ELISA; lysates of 293T cells transfected with LHBS genes with partial deletions, tested for recognition by the monoclonal antibody; settings: one partner purified
T3 construct: hepatitis B virus large surface protein: pre-S1 (119 a.a.), pre-S2 (55 a.a.) and S (227 a.a.) regions as printed; also called the full-length; source: 293T cells, transfected, in lysate
T3 sequence (P03141 whole entry): as the sequence (P03141 whole entry, looked up) above

B1: anti-pre-S1 mouse monoclonal antibody (clone N-term-7-21-5) (antibody, V domains shown)
VH: DVQLQESGPGLVKPSQSLSLTCTVTGYSITSDYAWNWIRQFPGNKLEWMGYIRYSGTTNYNPSLKSRISITRDTSKNQFFLQLNSVTTEDTATYYCARGGTGLTYWGQGTLVTVSA
VL: NIVMTQSPKSMSMSLGERVTLTCKASENVGTYVSWYQQKPEQSPKLLIYGASNRNTGVPDRFTGSGPATDFTLTISSVQAEDLADYLCGQTYNYPFTFGAGTKLELK
notes: heavy chain CDR1; heavy chain CDR2; heavy chain CDR3; kappa light chain CDR1; kappa light chain CDR2; kappa light chain CDR3; Only the six CDRs are printed; Coating antibody of the sandwich ELISA; also called pre-S1 antibody; LHBS-specific antibody; source: mouse hybridoma, ascites fluid, purified using IgG beads
[1]
  binding result: binds
[2]
  binding result: binds

B2: anti-pre-S2 mouse monoclonal antibody (antibody, V domains shown)
VH: QVQLQQPGTELVKPGTSVKLSCKASGYTFTSYWMHWVKLRPGQGFEWIGEINPSNGITNYNEKFKRKATLTVDKSSTTAYMQLSSLTFEDSAVYYCTIGYDYGSNYEAMDFWGQGTSVTVSS
VL: DIVMTQAAFSNPVTLGTSASMSCRSSKSLLHSNGITYLYWYLQKPGQSPQLLIYQMSNLASGVPDRFSSGGSGTDFTLRISRVEAEDVGVYYCAQNLELPWTFGGGTKLEIK
notes: heavy chain CDR1; heavy chain CDR2; heavy chain CDR3; kappa light chain CDR1; kappa light chain CDR2; kappa light chain CDR3; Only the six CDRs are printed; Aliquots were conjugated with biotin for use as detection antibody in the sandwich ELISA; also called pre-S2 antibody; anti-pre-S2 region antibody; source: mouse hybridoma, ascites fluid, purified using IgG beads
[3]
  binding result: binds
[1]
  binding result: binds
